Data published in patent publication US20210284749A1.

Molecular target: human BCMA-Fc (R&D system, 193-BC-050) (human) (UniProt Q02223)
Assay: competition ELISA on coated human BCMA-Fc; antibody titrated and mixed with 200 ng/ml BAFF, bound BAFF detected, absorbance 450 nm

Chain of human BCMA-Fc (R&D system, 193-BC-050) (human) (Q02223 1-54 limits assumed): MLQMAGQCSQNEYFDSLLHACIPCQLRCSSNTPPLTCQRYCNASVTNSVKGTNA

IC50 (read off the curve): 4 nM
B1: J6MO (antibody, INN chains, looked up, V domains shown)
VH: QVQLVQSGAEVKKPGSSVKVSCKASGGTFSNYWMHWVRQAPGQGLEWMGATYRGHSDTYYNQKFKGRVTITADKSTSTAYMELSSLRSEDTAVYYCARGAIYDGYDVLDNWGQGTLVTVSS
VL: DIQMTQSPSSLSASVGDRVTITCSASQDISNYLNWYQQKPGKAPKLLIYYTSNLHSGVPSRFSGSGSGTDFTLTISSLQPEDFATYYCQQYRKLPWTFGQGTKLEIK
